What was measured:
[1] = molecular target: T1, human neonatal Fc receptor (FcRn), soluble (human, UniProt P55899 24-297; P61769 21-119, limits assumed); assay: ELISA on coated human FcRn at pH 6.0, OD405
T1 construct: also called human FcRn; human single-chain soluble FcRn
Method: Antigens were coating on ELISA plate wells at 50 ng per well in PBS overnight at 4° C., blocked with protein-free blocking buffer for 1 h at 37° C. Threefold serially diluted protein was added and incubated at 37° C. for 2 h. The plates were washed with PBST, and HRP-conjugated anti-Fc antibody in PBS was incubated with wells for 1 h at 37° C. After extensive washes with PBST, the binding was detected with the addition of ABTS substrate, and signals were read at 405 nm. For FcRn binding test at pH 6.0, all proteins were prepared in PBS with pH adjusted to 6.0 by HCl, and PBST with pH 6.0 was used for washing the wells.

[2] = molecular target: T1, human neonatal Fc receptor (FcRn), …; assay: SPR (BIAcore X100), human FcRn immobilised on CM5 chip, pH 6.0; SPR (BIAcore X100), FcRn on CM5 chip, pH 6.0
Method: The interaction of monomeric Fc with immobilized FcRn was monitored by SPR detection using a BIAcore X100 instrument (GE Healthcare). Purified human FcRn was diluted in 10 mM Na-acetate buffer, pH 5.0, and immobilized on a CM5 biosensor chip using amine coupling kit. The running buffer was PBS with 0.005% Tween 20 for testing binding at pH 7.4, or PBS pH 6.0 with 0.005% Tween 20 for binding at pH 6.0. […] After 10 min of dissociation, the chip was regenerated with pH 8.0 buffer (100 mM Tris, pH 8.0, 50 mM NaCl).
Human FcRn was immobilized on a CM5 bio sensor chip followed by analysis of the interaction using BIAcore X100. The binding was performed under pH 6.0 and pH 7.4, respectively, and the chip was regenerated with pH 8.0 buffer.

[3] = molecular target: T1, human neonatal Fc receptor (FcRn), …; assay: SPR (BIAcore), human FcRn immobilised, pH 6.0; concentrations not given
[4] = molecular target: T1, human neonatal Fc receptor (FcRn), …; assay: SPR, human FcRn immobilised, pH 6.0; pH 6.0
[5] = molecular target: T1, human neonatal Fc receptor (FcRn), …; assay: SPR (BIAcore), human FcRn immobilised, pH 6.0; SPR (BIAcore), FcRn on the chip, pH 6.0
Method: The interaction of monomeric Fc with immobilized FcRn was monitored by SPR detection using a BIAcore X100 instrument (GE Healthcare). Purified human FcRn was diluted in 10 mM Na-acetate buffer, pH 5.0, and immobilized on a CM5 biosensor chip using amine coupling kit. The running buffer was PBS with 0.005% Tween 20 for testing binding at pH 7.4, or PBS pH 6.0 with 0.005% Tween 20 for binding at pH 6.0. […] After 10 min of dissociation, the chip was regenerated with pH 8.0 buffer (100 mM Tris, pH 8.0, 50 mM NaCl). Another test with a protein concentration of 500 nM was repeated to monitor the regeneration efficiency.
It was determined whether mCH3 could bind FcRn in a pH-dependent manner. Surface plasmon resonance (SPR) binding was performed using a BIAcore instrument with human FcRn immobilized on the chip, as described previously. The measurements were carried out under pH 6.0 or pH 7.4, and the chips were regenerated after binding by injection of a pH 8.0 buffer.

T1 sequence (P55899 24-297 limits assumed, chain 1 of 2): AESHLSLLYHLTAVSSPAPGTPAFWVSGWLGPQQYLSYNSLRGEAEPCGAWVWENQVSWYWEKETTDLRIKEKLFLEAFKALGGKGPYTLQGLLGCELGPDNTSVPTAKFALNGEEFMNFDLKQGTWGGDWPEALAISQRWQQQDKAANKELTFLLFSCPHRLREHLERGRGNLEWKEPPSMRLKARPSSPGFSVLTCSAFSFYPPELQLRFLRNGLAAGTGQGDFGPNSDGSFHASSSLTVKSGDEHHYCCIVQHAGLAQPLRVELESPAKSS
T1 sequence (P61769 21-119 limits assumed, chain 2 of 2): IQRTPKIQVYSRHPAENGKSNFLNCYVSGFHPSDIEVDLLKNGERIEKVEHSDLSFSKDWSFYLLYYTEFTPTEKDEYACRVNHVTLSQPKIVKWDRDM

Binder | EC50 (read off the curve) [1] | Kd [2] | other results
mFc.1 (designed binder, also called monomeric Fc mFc.1) APELLGGPSVFLFPPKPKDTLMISRTPEVTCVVVDVSHEDPEVKFNWYVDGVEVHNAKTKPREEQYNSTYRVVSVLTVLHQDWLNGKEYKCKVSNKALPAPIEKTISKAKGQPREPQVYTYPPSRDELTKNQVSLYCAVKGFYPSDIAVEWESNGQPENNYKTTRPVLDSDGSFRLMSALTVDKSRWQQGNVFSCSVMHEALHNHYTQKSLSLSPGK | ~100 nM | 204 nM | –
mFc.23 (designed binder, also called monomeric Fc mFc.23) APELLGGPSVFLFPPKPKDTLMISRTPEVTCVVVDVSHEDPEVKFNWYVDGVEVHNAKTKPREEQYNSTYRVVSVLTVLHQDWLNGKEYKCKVSNKALPAPIEKTISKAKGQPREPQVYTSPPSRDELTKNQVSLRCHVKGFYPSDIAVEWESNGQPENNYKTTKPVLDSDGSFELKSALTVDKSRWQQGNVFSCSVMHEALHNHYTQKSLSLSPGK | ~60 nM | 59 nM | –
mFc.67 (designed binder, also called monomeric Fc mFc.67; mFc.67 monomer) APELLGGPSVFLFPPKPKDTLMISRTPEVTCVVVDVSHEDPEVKFNWYVDGVEVHNAKTKPREEQYNSTYRVVSVLTVLHQDWLNGKEYKCKVSNKALPAPIEKTISKAKGQPREPQVYTKPPSRDELTKNQVSLSCLVKGFYPSDIAVEWESNGQPENNYKTTVPVLDSDGSFRLASYLTVDKSRWQQGNVFSCSVMHEALHNHYTQKSLSLSPGK | – | 111 nM | –
wild-type CH3 domain (other, also called isolated CH3; Fc CH3 domain) PREPQVYTLPPSRDELTKNQVSLTCLVKGFYPSDIAVEWESNGQPENNYKTTPPVLDSDGSFFLYSKLTVDKSRWQQGNVFSCSVMHEALHNHYTQKSLSLSPGK | – | – | binding result [3]: no binding
mCH3 343C/431C mutant (mCH3cc) (designed binder, additional disulfide bond between Cys343 and Cys431, also called engineered mCH3) CREPQVYTSPPSRDELTKNQVSLRCHVKGFYPSDIAVEWESNGQPENNYKTTKPVLDSDGSFFLYSKLTVDKSRWQQGNVFSCSVMHECLHNHYTQKSLSLSPGK | – | – | Kd [4]: 1080 nM
monomeric CH3 domain (mCH3) (designed binder) PREPQVYTSPPSRDELTKNQVSLRCHVKGFYPSDIAVEWESNGQPENNYKTTKPVLDSDGSFFLYSKLTVDKSRWQQGNVFSCSVMHEALHNHYTQKSLSLSPGK | – | – | Kd [5]: 940 nM
